Experiments:
[1] = tested on: Human pancreatic cells (BxPc-3); assay: BxPc-3 xenograft pancreatic cancer model; assay type: in vivo; settings: BxPc-3 subcutaneous in nude mice; IP administration started after 2 weeks; versus control antibody (P1.17) or PBS; FIG. 2
Procedure: FIG. 2 is a graph showing growth of human pancreatic tumor cell line BxPc-3 in a xenograft animal model, with and without anti-Tweak antibody (P2D10) treatment.
Human pancreatic cells (BxPc-3) were injected subcutaneously into nude mice. After 2 weeks, when the tumors were […], the mice (9-10 per group) were treated with an anti-TWEAK antibody (P2D10), a control antibody (P1.17) or PBS, by IP administration.

[2] = tested on: Human pancreatic tumor cells BxPc3, Panc1 and MiaPaCa2; assay: cell invasion assay on matrigel-coated membranes in transwell plates; assay type: cell-based; settings: Tweak 50 ng/ml; BxPc-3, Panc-1 and MiaPaCa; measured after 48 hours; FIG. 1
Procedure: FIG. 1 is a bar graph showing results from an invasion assay of human pancreatic cell lines with and without added Tweak (Tk), and in the presence or absence of an anti-Tweak antibody (p5g9). HGF is a positive control.
To measure the effect of Tweak on pancreatic tumor cell line invasiveness, cell invasion assays were performed. Human pancreatic tumor cells BxPc3, Panc1 and MiaPaCa2 were plated on matrigel-coated membranes in transwell plates. TWEAK was added to the medium, and the number of cells that invade was measured after 48 hours. BSA was used as a negative control and HGF as a positive control in these experiments.

[3] = tested on: mammary epithelial line Eph4; assay: 3-D culture model system of the mammary epithelial line Eph4; assay type: cell-based; settings: Eph4 3-D culture
Text: We detect Fn14 protein in human tumor cell lines and in xenograft and primary breast tumor samples. Fn14 expression is detected in the majority of human breast tumors but not in normal breast tissue samples. […] The capacity to promote proliferation, inhibit differentiation and induce invasion is consistent with a role for TWEAK in tumorigenesis.

Molecule	tumor size [1]	invasion of human pancreatic cell lines (number of cells that invade) [2]	morphogenic phenotype (proliferation, invasiveness, functional differentiation) ([3]; TWEAK treatment)	matrix metalloproteinase MMP-9 expression ([3]; following TWEAK treatment)
P2D10: exemplary murine anti-Tweak antibody; heavy chain variable domain SEQ ID NO:3, light chain variable domain SEQ ID NO:4 (antibody, listed as Mus musculus, V domains shown) VH: EVQLVESGGGLVRPGGSLKLFCAASGFTFSRYAMSWVRQSPEKRLEWVAEISSGGSYPYYPDTVTGRFTISRDNAKNTLYLEMSSLKSEDTAMYYCARVLYYDYDGDRIEVMDYWGQGTAVIVSS VL: DVVMTQSPLSLSVSLGDQASISCRSSQSLVSSKGNTYLHWYLQKPGQSPKFLIYKVSNRFSGVPDRFSGSGSGTDFTLKISRVAAEDLGVYFCSQSTHFPRTFGGGTTLEIK	statistically significant reduction in tumor size	–	–	–
Tweak: TNF-like weak inducer of apoptosis, a member of the tumor-necrosis factor (TNF) superfamily of cytokines (protein, listed as Homo sapiens) MAARRSQRRRGRRGEPGTALLVPLALGLGLALACLGLLLAVVSLGSRASLSAQEPAQEELVAEEDQDPSELNPQTEESQDPAPFLNRLVRPRRSAPKGRKTRARRAIAAHYEVHPRPGQDGAQAGVDGTVSGWEEARINSSSPLRYNRQIGEFIVTRAGLYYLYCQVHFDEGKAVYLKLDLLVDGVLALRCLEEFSATAASSLGPQLRLCQVSGLLALRPGSSLRIRTLPWAHLKAAPFLTYFGLFQVH	–	induced invasion	induces a dramatic branching morphogenic phenotype	significantly up-regulated

Source: US20100272721A1, “TREATMENT OF CANCER” (Biogen Idec MA Inc., priority 2005, published 2010)
